For 25 molecules, Kd, koff and kon results are on record in patent US20210047372A1 (Affibody, published 2021).

The labels stand for the following.
B1: Y00032 (designed binder)
chain: MGSSHHHHHHGSSLAEAKEAAIAELDSKGVGAYQKSFIELAKSVEHVELLKEAILADLP
B2: Y00293 (designed binder)
chain: MGSSHHHHHHGSSLAEAKEAAIAELDSKGVGAYQIKFIELAKSVEHVQLLKQAILADLP
notes: Y00270 with E35Q + E39Q; also called Y000293
B3: Y00270 (designed binder)
chain: MGSSHHHHHHGSSLAEAKEAAIAELDSKGVGAYQIKFIELAKSVEHVELLKEAILADLP
notes: Y00032 with K22I + S23K
B4: Y00292 (designed binder)
chain: MGSSHHHHHHGSSLAEAKEAAIAELDSKGVGAYQKKFIELAKSVEHVQLLKQAILADLP
notes: Y00032 with S23K + E35Q + E39Q
B5: Y00295 (designed binder)
chain: MGSSHHHHHHGSSLAEAKEAAIAELDSKGVGAYQIKFIELAKSVEHVQLLKQAILKDLP
notes: Y00270 with E35Q + E39Q + A43K
B6: Y00294 (designed binder)
chain: MGSSHHHHHHGSSLAEAKEAAIAELDSKGVGAYQIKFIELAKSVEHVQLLKEAILKDLP
notes: Y00270 with E35Q + A43K
B7: Y02444 (designed binder)
chain: MGSSHHHHHHGSSLAEAKEAAIAELDSKGVGAVEIKQIQEALLVEIVQLLKQAILAVLPA
notes: From library Ylib002Naive.I; also called Y002444
B8: Y02703 (designed binder)
chain: MGSSHHHHHHGSSLAEAKEAAIAELDSYGVGAVEIKQIEEALLVEIVQLLKQAILAVLPA
notes: Y02444 with K15Y + Q26E
B9: Y02701 (designed binder)
chain: MGSSHHHHHHGSSLAEAKEAAIAELDSYGVGAGDIKDIQDALLVEIVQLLKQAILAVLPA
notes: Y02415 with K15Y
B10: Y02702 (designed binder)
chain: MGSSHHHHHHGSSLAEAKEAAIAELDSKGVGAGDIKDIEDALLVEIVQLLKQAILAVLPA
notes: Y02415 with Q26E
B11: Y02700 (designed binder)
chain: MGSSHHHHHHGSSLAEAKEAALAELDSKGVGAGDIKDIQDALLVEIVQLLKQAILAVLPA
notes: Y02415 with I9L
B12: Y02465 (designed binder)
chain: MGSSHHHHHHGSSLAEAKEAAIAELDSKGVGANHIKAIQHAQFVEIVQLLKQAILAVLPA
notes: From library Ylib002Naive.I
B13: Y02374 (designed binder)
chain: MGSSHHHHHHGSSLAEAKEAAIAELDSKGVGAAEIKRIQAAELVEIVQLLKQAILAVLPA
notes: From library Ylib002Naive.I
B14: Y02697 (designed binder)
chain: MGSSHHHHHHGSSLAEAKEAALAELDSKGVGAVEIKQIQEALLVEIVQLLKQAILAVLPA
notes: Y02444 with I9L
B15: Y02698 (designed binder)
chain: MGSSHHHHHHGSSLAEAKEAAIAELDSYGVGAVEIKQIQEALLVEIVQLLKQAILAVLPA
notes: Y02444 with K15Y
B16: Y02415 (designed binder)
chain: MGSSHHHHHHGSSLAEAKEAAIAELDSKGVGAGDIKDIQDALLVEIVQLLKQAILAVLPA
notes: From library Ylib002Naive.I
B17: Y02495 (designed binder)
chain: MGSSHHHHHHGSSLAEAKEAAIAELDSKGVGAEEIKEIQGAMLVEIVQLLKQAILAVLPA
notes: From library Ylib002Naive.I
B18: Y02447 (designed binder)
chain: MGSSHHHHHHGSSLAEAKEAAIAELDSKGVGAHGIKEIQDAILVEIVQLLKQAILAALPA
notes: From library Ylib002Naive.I
B19: Y02699 (designed binder)
chain: MGSSHHHHHHGSSLAEAKEAAIAELDSKGVGAVEIKQIEEALLVEIVQLLKQAILAVLPA
notes: Y02444 with Q26E
B20: Y02303 (designed binder)
chain: MGSSHHHHHHGSSLAEAKEAAIAELDSKGVGAEEIKWIQNAWSVEGVQIMKQQILAELPA
notes: From library Ylib002Naive.I
B21: Y02337 (designed binder)
chain: MGSSHHHHHHGSSLAEAKEAAIAELDSKGVGAAEIKWIQHASTVEGVQGRKQQILAELPA
notes: From library Ylib002Naive.I
B22: Y02309 (designed binder)
chain: MGSSHHHHHHGSSLAEAKEAAIAELDSKGVGADLIKKIQKAESVEGVQFWKQEILATLPA
notes: From library Ylib002Naive.I
B23: Y00792 (designed binder)
chain: MGSSHHHHHHGSSLAEAKEAAIAELDSKGVGADLIKKIQQASSVEGVQFWKQEILAQLPA
notes: From library Ylib002Naive.I
B24: Y02330 (designed binder)
chain: MGSSHHHHHHGSSLAEAKEAAIAELDSKGVGAELIKKIQHAESVEGVQFWKQEILAYLPA
notes: From library Ylib002Naive.I
B25: Y02358 (designed binder)
chain: MGSSHHHHHHGSSLAEAKEAAIAELDSKGVGADDIKLIQDAPSVEGVQEIKQFILAQLPA
notes: From library Ylib002Naive.I

T1 sequence (P01308 25-54 limits assumed, form in doubt, chain 1 of 2): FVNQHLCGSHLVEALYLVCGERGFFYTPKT
T1 sequence (P01308 90-110 limits assumed, form in doubt, chain 2 of 2): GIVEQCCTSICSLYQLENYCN

One test has as its target T1, insulin (UniProt P01308 25-54; P01308 90-110, limits assumed).
T1 construct: Mature insulin has two chains (A and B) from one precursor; also called b-insulin
The test can be described thus: SPR, Biacore T200; target immobilized on CM5, His6-tagged Y variant injected; 1:1 Langmuir. The method, then: (§1) Kinetic constants (kₐ and kd) and affinities (KD) were determined for Hiss-tagged Y variants using a Biacore T200 instrument (GE Healthcare). Target proteins C4, IL-6 and insulin, respectively, were immobilized in separate flow cells on the carboxylated dextran layer of different CM5 chip surfaces (GE Healthcare).
(§2) Immobilization was performed using amine coupling chemistry according to the manufacturer's protocol and PBS pH 7.4 supplemented with 0.1 Tween20 (PBST 0.1%) as running buffer. The ligand immobilization levels on the surfaces were 3280-8830 RU for C4, 495-1184 RU for IL-6, and 270-282 RU for insulin. One flow cell surface on each chip was activated and deactivated for use as blank during analyte injections. In the kinetic experiment, PBST 0.1% was used as running buffer at a flow rate of 30 μl/min. The analytes, i.e. Y variants, were each diluted in PBST 0.1 buffer at concentrations of 1000, 500, 100, 50 and 10 nM and injected for 5 min, followed by dissociation in running buffer for 3 min. After dissociation, the surfaces were regenerated with one injection of 30 μl 10 mM HCl. Kinetic constants were calculated from the sensorgrams using the Langmuir 1:1 model of Biacore T200 Evaluation software 2.0 (GE Healthcare).
Turning to B1, the Kd came to 63 nM. That is a double-digit nanomolar value.
Take B2: binding was put at a Kd of 490 nM.
B3 gave a Kd of 77 nM.
As for B4, the affinity, expressed as Kd, was 450 nM.
Same read-out and setting: the figure for B5 is 580 nM; for B6 it is 490 nM.

For the next test, the target named is T2, interleukin 6 (IL-6) (UniProt P05231 30-212).
T2 construct: also called b-IL-6
The test is described as above. How it is done: as §1, §2
For the molecule B7, binding was put at a Kd of 61 nM, the koff amounted to 0.0055 s⁻¹ and the kon came to 90000 M⁻¹ s⁻¹.
Consider B8, for which the Kd was determined as 120 nM, the koff worked out at 0.0025 s⁻¹ and the kon worked out at 21000 M⁻¹ s⁻¹.
Turning to B9, the Kd stood at 210 nM, the koff was found to be 0.0036 s⁻¹ and the kon stood at 21000 M⁻¹ s⁻¹.
In turn, B10 returned a Kd of 440 nM, a koff of 0.007 s⁻¹ and a kon of 16000 M⁻¹ s⁻¹.
B11 gave a Kd of 62 nM, a koff of 0.0025 s⁻¹ and a kon of 46000 M⁻¹ s⁻¹.
Molecule B12 had a Kd of 270 nM, a koff of 0.0021 s⁻¹ and a kon of 7500 M⁻¹ s⁻¹.
Regarding B13, the Kd worked out at 120 nM, the koff worked out at 0.0017 s⁻¹ and the kon came out at 14000 M⁻¹ s⁻¹.
In turn, B14 displayed a Kd of 150 nM, a koff of 0.009 s⁻¹ and a kon of 50000 M⁻¹ s⁻¹.
Molecule B15 showed a Kd of 120 nM, a koff of 0.0033 s⁻¹ and a kon of 28000 M⁻¹ s⁻¹.
Molecule B16 registered a Kd of 160 nM, a dissociation rate constant (koff) of 0.0015 s⁻¹ and a kon of 9700 M⁻¹ s⁻¹.
The molecule B17 had a Kd of 240 nM, a koff of 0.0017 s⁻¹ and a kon of 7100 M⁻¹ s⁻¹.
B18 returned a Kd of 160 nM, a koff of 0.0017 s⁻¹ and a kon of 11000 M⁻¹ s⁻¹.
For B19, the Kd is 200 nM, the koff worked out at 0.0029 s⁻¹ and the kon came to 19000 M⁻¹ s⁻¹.

For a further test, the target named is T1, insulin. The description is as above. This is another data set of the same source. The method, then: as §1, §2
B1 came in with a Kd of 63 nM.
B3 returned a Kd of 77 nM.

In a further test the target is T3, complement component 4 (C4) (UniProt P0C0L4 20-675; P0C0L4 680-1446; P0C0L4 1454-1744, limits assumed).
T3 construct: Natural C4 is a three-chain protein (alpha, beta, gamma) made from one precursor; Biotinylated for ELISA, amine-coupled to the chip for SPR; also called b-C4
T3 sequence (P0C0L4 20-675 limits assumed, chain 1 of 3): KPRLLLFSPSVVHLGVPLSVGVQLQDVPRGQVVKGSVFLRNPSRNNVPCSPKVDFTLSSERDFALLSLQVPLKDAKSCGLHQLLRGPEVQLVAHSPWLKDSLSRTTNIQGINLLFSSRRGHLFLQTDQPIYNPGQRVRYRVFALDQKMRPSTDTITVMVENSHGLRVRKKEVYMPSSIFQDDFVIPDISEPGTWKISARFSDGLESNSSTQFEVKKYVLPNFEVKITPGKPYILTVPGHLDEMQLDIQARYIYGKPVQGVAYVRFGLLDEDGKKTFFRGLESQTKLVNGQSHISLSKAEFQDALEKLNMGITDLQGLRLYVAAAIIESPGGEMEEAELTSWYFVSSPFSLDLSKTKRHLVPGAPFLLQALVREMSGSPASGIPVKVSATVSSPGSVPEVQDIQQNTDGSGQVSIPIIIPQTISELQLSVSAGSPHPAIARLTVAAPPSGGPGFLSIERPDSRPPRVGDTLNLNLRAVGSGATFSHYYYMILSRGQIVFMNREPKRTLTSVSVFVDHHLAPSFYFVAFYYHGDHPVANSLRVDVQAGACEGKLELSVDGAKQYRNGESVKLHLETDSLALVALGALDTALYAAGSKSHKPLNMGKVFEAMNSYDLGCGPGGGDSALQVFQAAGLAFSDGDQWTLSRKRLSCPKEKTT
T3 sequence (P0C0L4 680-1446 limits assumed, chain 2 of 3): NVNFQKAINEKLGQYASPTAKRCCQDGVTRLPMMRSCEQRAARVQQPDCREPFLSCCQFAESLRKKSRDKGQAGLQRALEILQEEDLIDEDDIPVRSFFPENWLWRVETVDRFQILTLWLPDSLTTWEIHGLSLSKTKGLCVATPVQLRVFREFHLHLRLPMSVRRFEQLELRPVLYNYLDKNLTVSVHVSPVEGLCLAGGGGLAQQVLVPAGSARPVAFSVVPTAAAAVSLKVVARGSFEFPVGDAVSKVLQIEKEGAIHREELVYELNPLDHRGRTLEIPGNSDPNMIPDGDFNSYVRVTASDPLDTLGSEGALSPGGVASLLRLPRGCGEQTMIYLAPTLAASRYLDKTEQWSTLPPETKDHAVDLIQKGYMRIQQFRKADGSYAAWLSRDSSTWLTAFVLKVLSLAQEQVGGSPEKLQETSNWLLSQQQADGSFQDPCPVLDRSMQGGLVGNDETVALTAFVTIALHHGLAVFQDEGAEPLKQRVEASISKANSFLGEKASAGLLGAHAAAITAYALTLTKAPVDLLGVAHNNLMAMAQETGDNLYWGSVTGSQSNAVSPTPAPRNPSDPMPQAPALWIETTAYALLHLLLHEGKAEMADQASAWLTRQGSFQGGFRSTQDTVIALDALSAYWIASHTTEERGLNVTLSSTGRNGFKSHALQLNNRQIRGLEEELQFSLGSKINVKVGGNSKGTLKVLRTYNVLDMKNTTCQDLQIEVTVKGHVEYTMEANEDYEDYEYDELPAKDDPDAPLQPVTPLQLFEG
T3 sequence (P0C0L4 1454-1744 limits assumed, chain 3 of 3): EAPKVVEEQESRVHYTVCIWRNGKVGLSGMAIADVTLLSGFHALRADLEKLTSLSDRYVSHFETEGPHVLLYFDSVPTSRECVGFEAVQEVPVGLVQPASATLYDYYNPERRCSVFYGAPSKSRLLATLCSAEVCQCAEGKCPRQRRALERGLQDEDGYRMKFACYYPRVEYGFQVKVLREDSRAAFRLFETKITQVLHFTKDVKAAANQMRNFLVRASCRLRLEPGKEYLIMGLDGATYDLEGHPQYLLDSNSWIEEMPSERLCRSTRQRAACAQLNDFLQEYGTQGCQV
The test is described as above. How it is done: as §1, §2
Molecule B20 registered a Kd of 2200 nM, a koff of 0.21 s⁻¹ and a kon of 96000 M⁻¹ s⁻¹.
B21 registered a Kd of 1900 nM, a dissociation rate constant (koff) of 0.81 s⁻¹ and a kon of 420000 M⁻¹ s⁻¹.
Turning to B22, the Kd came out at 70 nM, the koff stood at 0.0025 s⁻¹ and the kon amounted to 36000 M⁻¹ s⁻¹.
On to B23, for which the Kd turned out to be 62 nM, the koff is 0.0017 s⁻¹ and the kon came out at 27000 M⁻¹ s⁻¹.
As for B24, binding was put at a Kd of 48 nM, the koff amounted to 0.0046 s⁻¹ and the kon amounted to 96000 M⁻¹ s⁻¹.
As to B25, the Kd worked out at 16 nM, the koff was determined as 0.0014 s⁻¹ and the kon came out at 90000 M⁻¹ s⁻¹.
